From US20020157122
Changes are numbered by the printed parent chain.

Tests used:
[1] = target: T1, humanized wild type APP (hAPPwt), P12023
T1 chain: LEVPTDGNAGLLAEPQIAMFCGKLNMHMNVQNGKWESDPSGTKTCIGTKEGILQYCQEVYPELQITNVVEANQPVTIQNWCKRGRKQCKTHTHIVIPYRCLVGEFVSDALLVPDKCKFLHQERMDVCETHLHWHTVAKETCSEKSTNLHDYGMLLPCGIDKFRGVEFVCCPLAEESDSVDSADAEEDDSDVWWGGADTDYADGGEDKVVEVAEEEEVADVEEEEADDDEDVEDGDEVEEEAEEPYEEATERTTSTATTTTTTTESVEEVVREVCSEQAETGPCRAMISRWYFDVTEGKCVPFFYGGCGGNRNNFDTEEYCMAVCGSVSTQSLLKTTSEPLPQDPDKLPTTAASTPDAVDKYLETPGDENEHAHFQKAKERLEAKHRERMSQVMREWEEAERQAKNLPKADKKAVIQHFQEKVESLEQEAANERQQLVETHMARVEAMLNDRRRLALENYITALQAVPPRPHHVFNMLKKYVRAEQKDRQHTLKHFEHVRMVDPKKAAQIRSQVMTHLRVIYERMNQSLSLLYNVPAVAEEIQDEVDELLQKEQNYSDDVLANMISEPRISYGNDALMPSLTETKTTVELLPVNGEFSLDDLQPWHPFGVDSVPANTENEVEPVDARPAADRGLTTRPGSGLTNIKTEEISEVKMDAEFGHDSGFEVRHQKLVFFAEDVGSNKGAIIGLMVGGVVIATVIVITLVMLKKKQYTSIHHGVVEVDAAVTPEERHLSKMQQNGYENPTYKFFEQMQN

[2] = target: humanized APP bearing the Swedish variant (a murine APP in which the Aβ1-42 region corresponds to the human Aβ1-42), P12023
[3] = target: hAPP717 (variant of humanized APP), P12023
[4] = target: T2, mouse APP (endogenous β-amyloid precursor protein), P12023
T2 chain: T1 chain

B1: human BACE1 (full-length, expressed from recombinant adenovirus) (protein)
chain: ETDEEPEEPGRRGSFVEMVDNLRGKSGQGYYVEMTVGSPPQTLNILVDTGSSNFAVGAAPHPFLHRYYQRQLSSTYRDLRKGVYVPYTQGKWEGELGTDLVSIPHGPNVTVRANIAAITESDKFFINGSNWEGILGLAYAEIARPDDSLEPFFDSLVKQTHVPNLFSLQLCGAGFPLNQSEVLASVGGSMIIGGIDHSLYTGSLWYTPIRREWYYEVIIVRVEINGQDLKMDCKEYNYDKSIVDSGTTNLRLPKKVFEAAVKSIKAASSTEKFPDGFWLGEQLVCWQAGTTPWNIFPVISLYLMGEVTNQSFRITILPQQYLRPVEDVATSQDDCYKFAISQSSTGTVMGAVIMEGFYVVFDRARKRIGFAVSACHVHDEFRTAAVEGPFVTLDMEDCGYNIPQTDESTLMTIAYVMAAICALFMLPLCLMVCQWRCLRCLRQQHDDFADDISLLK
[1]
  +11 derived β-CTF in neurons (immunoprecipitation with CT15): when neurons co-expressing human BACE1 and hAPPwt or hAPPswe or hAPP717 there is secreted a peptide corresponding to the +11 derived β-CTF (+11-CTF) in addition to the +1 derived β-CTF
  secretion of human Aβ11-40 (IP-MS of conditioned media with 4G8): now revealed the secretion of human Aβ11-40 peptide in addition to the murine Aβ11-40 peptide from murine neurons co-expressing human BACE1 and hAPPwt
[2]
  +11 derived β-CTF in neurons (immunoprecipitation with CT15): when neurons co-expressing human BACE1 and hAPPwt or hAPPswe or hAPP717 there is secreted a peptide corresponding to the +11 derived β-CTF (+11-CTF) in addition to the +1 derived β-CTF
  secretion of Aβ peptides into culture medium of BACE1 deficient astrocytes: BACE1 deficient astrocytes co-infected with adenoviruses expressing both APPswe and BACE1 restored the ability to secrete Aβ peptides into culture medium
  secretion of human Aβ11-40 (IP-MS of conditioned media with 4G8): The human Aβ11-40 peptides are also secreted by primary neurons co expressing human BACE1 and hAPPswe or hAPP717
[3]
  +11 derived β-CTF in neurons (immunoprecipitation with CT15): when neurons co-expressing human BACE1 and hAPPwt or hAPPswe or hAPP717 there is secreted a peptide corresponding to the +11 derived β-CTF (+11-CTF) in addition to the +1 derived β-CTF
  secretion of human Aβ11-40 (IP-MS of conditioned media with 4G8): The human Aβ11-40 peptides are also secreted by primary neurons co expressing human BACE1 and hAPPswe or hAPP717

B2: mouse BACE1 (endogenous, beta-site APP-cleaving enzyme 1) (protein)
chain: B1 chain with P6S, V162I, L165I, S180T, V182A, I340V, L393A, Q443H
[1]
  secretion of Aβ peptides (IP-MS of conditioned media with 4G8): the human and murine Aβ1-40 and Aβ1-42 were secreted, however, the human Aβ11-40 peptide was not secreted into culture media from murine primary neurons infected with adenovirus expressing hAPPwt
[4]
  secretion of Aβ peptides from primary cortical neurons (IP-MS of conditioned media with 4G8): secretion of these Aβ species is abolished from BACE1-/- neurons except for the Aβ 17-40 (p3) fragment
[2]
  Aβ1-40 and Aβ1-42 in conditioned media of astrocytes (Aβ ELISA): Aβ1-40 and Aβ1-42 were easily detected from BACE1+/+ and BACE1+/- astrocyte cultures by Aβ ELISA assay, but were not detectable from BACE1-/- cultures
  Aβ1-40 and Aβ1-42 in conditioned media of neurons (quantitative sandwich ELISA): showed high levels of Aβ1-40 and Aβ1-42 while undetectable levels of Aβ1-40 and Aβ1-42 were observed from media of BACE1-/- cultures expressing APPswe

B3: BACE2 (endogenous, in cultured mouse astrocytes and neurons) (protein)
chain: ALEPVRATANFLAMVDNLQGDSGRGYYLEMLIGTPPQKVQILVDTGSSNFAVAGAPHSYIDTYFDSESSSTYHSKGFDVTVKYTQGSWTGFVGEDLVTIPKGFNSSFLVNIATIFESENFFLPGIKWNGILGLAYAALAKPSSSLETFFDSLVAQAKIPDIFSMQMCGAGLPVAGSGTNGGSLVLGGIEPSLYKGDIWYTPIKEEWYYQIEILKLEIGGQNLNLDCREYNADKAIVDSGTTLLRLPQKVFDAVVEAVARTSLIPEFSDGFWTGAQLACWTNSETPWAYFPKISIYLRDENASRSFRITILPQLYIQPMMGAGFNYECYRFGISSSTNALVIGATVMEGFYVVFDRAQRRVGFAVSPCAEIEGTTVSEISGPFSTEDIASNCVPAQALNEPILWIVSYALMSVCGAILLVLILLLLLPLHCRHAPRDPEVVNDESSLVRHRWK
[2]
  relative amount of Aβ 1-19 and Aβ 1-20 normalized to Aβ1-40 (ProteinChip array coated with 6E10): BACE2 mediated cleavages (at +19 and +20 of Aβ) were much higher in cultured astrocytes as compared to neurons
